Assay results reported in patent publication US20260265354A1 (JIANGSU MABWELL HEALTH PHARMACEUTICAL R AND D, published 2026).

T1: Nectin-like-2 (UniProt Q9BY67 45-374, limits assumed)
T1 construct: Bought recombinant protein; also called CADM1; IgSF4
T1 sequence (looked up): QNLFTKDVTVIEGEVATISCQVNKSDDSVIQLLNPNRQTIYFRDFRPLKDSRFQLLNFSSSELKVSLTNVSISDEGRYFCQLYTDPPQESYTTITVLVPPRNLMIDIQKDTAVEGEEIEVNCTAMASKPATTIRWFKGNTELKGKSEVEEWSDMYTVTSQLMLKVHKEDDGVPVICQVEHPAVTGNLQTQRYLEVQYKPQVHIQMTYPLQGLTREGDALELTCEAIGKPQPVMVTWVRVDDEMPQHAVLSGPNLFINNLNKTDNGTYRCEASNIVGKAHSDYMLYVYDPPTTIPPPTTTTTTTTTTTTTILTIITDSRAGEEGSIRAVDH

T2: Nectin-like-5 (UniProt P15151 21-343)
T2 construct: Bought recombinant protein; also called CD155; PVR
T2 sequence (looked up): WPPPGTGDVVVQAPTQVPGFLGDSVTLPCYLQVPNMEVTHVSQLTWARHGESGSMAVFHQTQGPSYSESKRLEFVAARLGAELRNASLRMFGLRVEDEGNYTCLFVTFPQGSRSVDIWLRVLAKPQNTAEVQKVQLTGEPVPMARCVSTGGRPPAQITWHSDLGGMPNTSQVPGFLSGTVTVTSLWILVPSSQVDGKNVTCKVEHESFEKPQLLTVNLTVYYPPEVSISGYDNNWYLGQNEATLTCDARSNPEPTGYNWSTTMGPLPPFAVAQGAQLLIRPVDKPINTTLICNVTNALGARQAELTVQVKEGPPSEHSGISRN

T3: Nectin-1 (UniProt Q15223 31-334, limits assumed)
T3 construct: Bought recombinant protein; also called CD111; PVRL-1
T3 sequence (looked up): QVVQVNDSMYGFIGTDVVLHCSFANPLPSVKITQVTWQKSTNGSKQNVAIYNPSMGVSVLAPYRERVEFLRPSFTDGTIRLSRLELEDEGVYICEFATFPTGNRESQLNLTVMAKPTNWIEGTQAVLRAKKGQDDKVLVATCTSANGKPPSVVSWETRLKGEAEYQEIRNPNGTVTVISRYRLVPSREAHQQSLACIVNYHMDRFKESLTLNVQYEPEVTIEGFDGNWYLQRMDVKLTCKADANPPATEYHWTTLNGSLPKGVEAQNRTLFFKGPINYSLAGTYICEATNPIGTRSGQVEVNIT

T4: Nectin-like-1 (UniProt Q8N126 25-330, limits assumed)
T4 construct: Bought recombinant protein; also called CADM3; IgSF4B
T4 sequence (looked up): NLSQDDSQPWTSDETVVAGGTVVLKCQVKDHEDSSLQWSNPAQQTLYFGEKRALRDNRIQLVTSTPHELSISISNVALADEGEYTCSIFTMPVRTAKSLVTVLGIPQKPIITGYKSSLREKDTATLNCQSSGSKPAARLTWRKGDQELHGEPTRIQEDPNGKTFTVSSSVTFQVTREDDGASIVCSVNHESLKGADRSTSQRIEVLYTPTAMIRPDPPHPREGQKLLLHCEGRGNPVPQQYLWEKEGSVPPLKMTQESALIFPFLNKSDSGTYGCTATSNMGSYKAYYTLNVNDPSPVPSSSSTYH

T5: Nectin-like-3 (UniProt Q8N3J6 25-367, limits assumed)
T5 construct: Bought recombinant protein; also called CADM2; IgSF4D
T5 sequence (looked up): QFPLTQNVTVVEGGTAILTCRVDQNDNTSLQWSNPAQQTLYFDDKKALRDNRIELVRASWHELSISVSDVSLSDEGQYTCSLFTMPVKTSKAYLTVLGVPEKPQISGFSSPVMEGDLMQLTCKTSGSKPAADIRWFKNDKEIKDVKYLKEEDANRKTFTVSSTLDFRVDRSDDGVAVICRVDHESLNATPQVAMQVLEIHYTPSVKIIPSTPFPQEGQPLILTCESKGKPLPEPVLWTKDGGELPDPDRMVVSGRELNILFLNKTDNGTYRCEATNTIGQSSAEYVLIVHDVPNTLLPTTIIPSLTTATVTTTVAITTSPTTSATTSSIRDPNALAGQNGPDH

T6: Nectin-like-4 (UniProt Q8NFZ8 21-324, limits assumed)
T6 construct: Bought recombinant protein; also called CADM4; IgSF4C
T6 sequence (looked up): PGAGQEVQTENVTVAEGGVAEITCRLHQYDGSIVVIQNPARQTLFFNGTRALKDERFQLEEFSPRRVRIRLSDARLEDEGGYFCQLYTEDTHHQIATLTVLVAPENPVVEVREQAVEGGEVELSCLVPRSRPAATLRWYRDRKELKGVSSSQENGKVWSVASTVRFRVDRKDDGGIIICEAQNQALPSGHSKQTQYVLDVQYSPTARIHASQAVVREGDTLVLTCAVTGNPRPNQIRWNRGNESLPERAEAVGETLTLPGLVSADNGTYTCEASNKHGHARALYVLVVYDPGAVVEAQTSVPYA


Tests used:
Nectin-like-2 [1] = biological target: T1, Nectin-like-2; assay: ELISA, coated antigen
Nectin-like-5 = biological target: T2, Nectin-like-5; assay: ELISA, coated antigen
Nectin-1 = biological target: T3, Nectin-1; assay: ELISA, coated antigen
Nectin-like-1 = biological target: T4, Nectin-like-1; assay: ELISA, coated antigen
Nectin-like-2 [2] = biological target: T1, Nectin-like-2; assay: ELISA, coated antigen, antibody at 10000 ng/ml
Method: (§1) Coating: Nectin-1, Nectin-2, Nectin-3, Nectin-4, Nectin-like-1, Nectin-like-2, Nectin-like-3, Nectin-like-4, and Nectin-like-5 were diluted to 5 μg/ml in coating buffer (carbonate buffer, pH 9.6) respectively. A 96-well plate was coat with 100 μl per well and incubated overnight at 2-8° C.;
(§2) Sample loading: The plate was taken out, patted dry, and washed twice with 200 μl/well of PBST, then patted dry. The Nectin-4 antibodies prepared in Example 1 (antibody MM11, antibody R012, and antibody R036) were diluted with 1% BSA/PBST to concentrations of 10 μg/ml, 1 μg/ml, 100 ng/ml, and 10 ng/ml, respectively. 1% BSA/PBST solution for dilution was set as a blank control. 100 μl per well was added to the 96-well plate, and incubated at room temperature for 2 hours;
(§3) Reaction termination and plate reading: 100 μl/well of 1 mol/L H3PO4 was added to terminate the reaction and the plated was read. The absorbances of wells in the plate at 450 nm with 650 nm as reference wavelength were read and recorded as OD_{450 nm-650 nm}.

Nectin-like-3 = biological target: T5, Nectin-like-3; assay: ELISA, coated antigen, antibody at 10000 ng/ml
Method: as §1, §2, §3

Nectin-like-4 = biological target: T6, Nectin-like-4; assay: ELISA, coated antigen, antibody at 10000 ng/ml
Method: as §1, §2, §3

Binder | binding result (Nectin-like-2 [1]) | binding result (Nectin-like-5) | binding result (Nectin-1) | binding result (Nectin-like-1) | OD detection value (Nectin-like-2 [2]) [OD450 nm-650 nm] | OD detection value (Nectin-like-3) [OD450 nm-650 nm] | OD detection value (Nectin-like-4) [OD450 nm-650 nm]
Antibody R012 (antibody, V domains shown, Rabbit monoclonal antibody from phage display; also called Nectin-4 rabbit monoclonal antibody R012; rabbit antibody R012) VH: SKSVEESGGRLVTPGTPLTLTCTVSGFSLSTYAMSWVRQAPGKGLEYIGIISGRGTTYYASWLKGRFTISKTSTTVDLKITSPTTEDTATYFCARDAGISDVYTGYFNLWGQGTLVTVSS VL: QPVLAQLPSASAALGASAKLTCTLSSAHRTYTIAWYQQQQGEAPRYLMMLKSDGSYTKGTGVPDRFSGSSSGADRYLIISSVQAADEADYYCGADDSGGYVFGGGTQLTVTG | no binding (tested: 10000 ng/ml) | no binding (tested: 10000 ng/ml) | no binding (tested: 10000 ng/ml) | no binding (tested: 10000 ng/ml) | 0.009 | 0.009 | 0.007
Antibody R036 (antibody, V domains shown, Rabbit monoclonal antibody from phage display; also called Nectin-4 rabbit monoclonal antibody R036; rabbit antibody R036) VH: SQSVEESGGRLVTPGTPLTLTCTVSGFSLSSYAMSWVRQAPGKGLEYIGIIGGRGTTYYAIWAKGRFTISKTSTTVDLKITSPTTEDTATYFCARDAGTTYVGTTYVATGYFNLWGQGTLVTVSS VL: QPVLTQPPSASAALGASAKLTCTLSSAHKTYTIAWYQQQQGEAPRYLMILKSDGSYTRGTGVPDRFSGSSSGADRYLIISSVQADDEADYYCGADDSGGYVFGGGTQLTVTG | no binding (tested: 10000 ng/ml) | no binding (tested: 10000 ng/ml) | no binding (tested: 10000 ng/ml) | no binding (tested: 10000 ng/ml) | 0.008 | 0.008 | 0.006
Antibody MM11 (antibody, mouse IgG1, kappa, V domains shown, Mouse monoclonal antibody from hybridoma; also called Nectin-4 mouse monoclonal antibody MM11; mouse antibody MM11) VH: DVQLQESGPGLVKPSQSLSLTCSVTGYSITSNFYWNWIRQFPGNRLEWMGYISYDGSNNYNPSLKNRISISRDTSKNQFFLKLNSVTTEDTATYYCVRADYWGQGTLVTVSA VL: DTVMTQTPLSLPVSLGDQASISCRSSQSLESSDGHAYLNWYLQKPGQSPQLLIYRVSNRFSGVLHRFSGSGSGTDFTLKISRVEAEDLGVYFCLQFTHVPFTFGSGTKLEIKR | no binding (tested: 10000 ng/ml) | no binding (tested: 10000 ng/ml) | no binding (tested: 10000 ng/ml) | no binding (tested: 10000 ng/ml) | 0.005 | 0.032 | 0.009
